What all share (assay): smFRET
The target in data set [1] is T1, MutS-E41A (Thermus aquaticus, UniProt Q56215 1-811, E41A).
T1 sequence: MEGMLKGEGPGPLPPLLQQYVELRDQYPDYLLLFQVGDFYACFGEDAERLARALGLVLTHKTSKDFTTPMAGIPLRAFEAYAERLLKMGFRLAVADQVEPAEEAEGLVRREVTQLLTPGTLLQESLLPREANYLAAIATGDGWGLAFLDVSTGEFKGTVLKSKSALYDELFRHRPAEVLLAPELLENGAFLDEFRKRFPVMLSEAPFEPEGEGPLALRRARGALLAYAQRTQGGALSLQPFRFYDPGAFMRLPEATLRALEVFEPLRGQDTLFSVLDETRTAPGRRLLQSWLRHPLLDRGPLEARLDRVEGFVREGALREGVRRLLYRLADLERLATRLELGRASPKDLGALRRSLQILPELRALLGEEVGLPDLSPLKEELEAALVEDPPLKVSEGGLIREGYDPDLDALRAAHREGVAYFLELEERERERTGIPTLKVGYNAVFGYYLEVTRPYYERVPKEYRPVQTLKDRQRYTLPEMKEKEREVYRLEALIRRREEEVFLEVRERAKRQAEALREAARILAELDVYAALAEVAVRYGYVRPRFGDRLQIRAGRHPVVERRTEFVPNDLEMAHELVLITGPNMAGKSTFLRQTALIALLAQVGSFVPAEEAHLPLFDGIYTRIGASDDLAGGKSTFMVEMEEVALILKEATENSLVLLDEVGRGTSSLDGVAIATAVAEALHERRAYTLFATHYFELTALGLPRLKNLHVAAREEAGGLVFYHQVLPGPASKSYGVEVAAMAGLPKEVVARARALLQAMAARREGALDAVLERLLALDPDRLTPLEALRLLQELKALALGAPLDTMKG

In data set [2] the target is T2, MutS (Thermus aquaticus, UniProt Q56215 1-811).
T2 sequence: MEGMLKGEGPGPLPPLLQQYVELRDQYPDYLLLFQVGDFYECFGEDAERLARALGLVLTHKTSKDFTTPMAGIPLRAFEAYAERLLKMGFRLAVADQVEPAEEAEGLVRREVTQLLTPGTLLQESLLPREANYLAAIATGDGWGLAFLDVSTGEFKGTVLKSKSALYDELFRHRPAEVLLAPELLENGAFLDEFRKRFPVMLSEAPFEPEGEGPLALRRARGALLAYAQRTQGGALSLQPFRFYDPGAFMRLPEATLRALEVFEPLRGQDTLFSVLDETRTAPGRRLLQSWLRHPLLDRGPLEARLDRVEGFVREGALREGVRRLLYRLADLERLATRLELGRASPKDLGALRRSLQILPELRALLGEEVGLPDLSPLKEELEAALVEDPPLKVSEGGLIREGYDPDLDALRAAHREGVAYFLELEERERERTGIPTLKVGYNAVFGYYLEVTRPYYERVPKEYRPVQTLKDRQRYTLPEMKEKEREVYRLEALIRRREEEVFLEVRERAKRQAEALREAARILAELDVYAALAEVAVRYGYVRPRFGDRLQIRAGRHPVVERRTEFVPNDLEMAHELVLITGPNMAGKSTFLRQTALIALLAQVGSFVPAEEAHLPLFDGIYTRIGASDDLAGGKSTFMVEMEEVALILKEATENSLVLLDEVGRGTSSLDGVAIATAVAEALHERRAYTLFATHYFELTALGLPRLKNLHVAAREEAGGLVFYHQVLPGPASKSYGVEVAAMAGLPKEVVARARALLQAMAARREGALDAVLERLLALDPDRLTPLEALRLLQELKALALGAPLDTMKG

Data set [3] concerns the target T1, MutS-E41A. The source holds these as a separate data set.
Data set [4] deals with T2, MutS. This is another data set of the same source.

Like-named read-outs stand apart in the source and are kept apart here.

B1: GT mismatch DNA (A1/B1/C1-GT) (dsDNA)
DNA 1: TGTCGGGGCTGGCTTAAGGTGTGAAATACCTCATCTCGAGCGTGCCGATA
DNA 2: TATCGGCACGTTCGAGATG
DNA 3: AGGTATTTCACACCTTAAGCCAGCCCCGACA
As for B1, the binding result with MutS-E41A [1] and in the data set with MutS [2] was “binds” throughout.

B2: T-bulge DNA (A1/B1/C2-T-bulge) (dsDNA)
DNA 1: TGTCGGGGCTGGCTTAAGGTGTGAAATACCTCATCTCGAGCGTGCCGATA
DNA 2: TATCGGCACGTCTCGAGATG
DNA 3: AGGTATTTCACACCTTAAGCCAGCCCCGACA
Consider B2, for which the binding result in the data set with MutS-E41A [3] and with MutS [4] was “binds” in each case.

Source of the values: PMC3985873.
